Experimental data from patent US20200262867A1 (WNTRX PHARMACEUTICALS, published 2020).
Bridges are numbered along the chain shown (N, C = ends). Primed or numbered codes have the meaning given here. Where no end group is shown, it is not given here. [ ]: non-standard residue; d: D form. The star is where a group is joined. S5′ = (S)-2-(4'-pentenyl)alanine, olefinic stapling residue closed by ring-closing metathesis; NMeQ′ = N-methylglutamine (N-alpha-methyl, stereo named both D and L in the filing); Phe(3,4-Cl2) = N[C@@H](Cc1ccc(Cl)c(Cl)c1)C(=O)O; PEG4″ = PEG4 (tetraethylene glycol) spacer; Phe(4-Cl) = N[C@@H](Cc1ccc(Cl)cc1)C(=O)O; Phe(4-F) = N[C@@H](Cc1ccc(F)cc1)C(=O)O; 2Nal = N[C@@H](Cc1ccc2ccccc2c1)C(=O)O; Palmitoyl = CCCCCCCCCCCCCCCC(=O)*; hArg = N=C(N)NCCCC[C@H](N)C(=O)O; NMeQ = CN[C@@H](CCC(N)=O)C(=O)O; dNMeQ = CN[C@H](CCC(N)=O)C(=O)O; Cha = N[C@@H](CC1CCCCC1)C(=O)O; Cba = N[C@@H](CC1CCC1)C(=O)O; S5 = C=CCCC[C@](C)(N)C(=O)O; NMeC = CN[C@@H](CS)C(=O)O

T1: β-catenin (UniProt P35222 1-781, limits assumed)
T1 construct: also called beta-catenin
T1 sequence (looked up): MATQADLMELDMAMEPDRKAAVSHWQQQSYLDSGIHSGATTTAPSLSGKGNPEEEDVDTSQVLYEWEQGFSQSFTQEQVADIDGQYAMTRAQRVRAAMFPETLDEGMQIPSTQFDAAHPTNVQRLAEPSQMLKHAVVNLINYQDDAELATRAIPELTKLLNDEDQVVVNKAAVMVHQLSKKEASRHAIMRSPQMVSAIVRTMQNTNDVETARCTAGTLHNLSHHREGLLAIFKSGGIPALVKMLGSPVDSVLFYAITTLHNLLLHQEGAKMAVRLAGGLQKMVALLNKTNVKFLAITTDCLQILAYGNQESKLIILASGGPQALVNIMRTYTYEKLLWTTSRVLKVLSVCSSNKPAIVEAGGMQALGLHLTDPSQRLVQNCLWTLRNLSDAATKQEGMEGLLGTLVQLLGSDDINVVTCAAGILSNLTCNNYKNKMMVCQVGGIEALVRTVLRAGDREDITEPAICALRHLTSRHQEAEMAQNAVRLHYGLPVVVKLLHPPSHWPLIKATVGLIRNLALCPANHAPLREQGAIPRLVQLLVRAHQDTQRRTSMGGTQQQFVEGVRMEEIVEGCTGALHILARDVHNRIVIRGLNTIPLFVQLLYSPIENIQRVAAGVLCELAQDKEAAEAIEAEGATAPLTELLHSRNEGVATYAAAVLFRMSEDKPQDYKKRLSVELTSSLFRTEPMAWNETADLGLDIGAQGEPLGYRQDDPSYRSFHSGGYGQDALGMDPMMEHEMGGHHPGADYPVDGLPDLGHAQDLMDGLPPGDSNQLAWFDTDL

B1: SEQ ID NO: 141 (peptide)
peptide: {4‑(trifluoromethyl)benzoic acid}-L[NMeQ]TLR[S5]IQR[S5][Cba][2Nal]-NH2
modifications: staple 6-10; not fully specified
notes: the footnote mark in T0158 is printed 19, seemingly for 10
B2: SEQ ID NO: 196 (peptide)
peptide: Ac-HRQRSLQTLR[S5]IQR[S5][Phe(4-Cl)][2Nal]-NH2
modifications: staple 11-15
SMILES: CC[C@H](C)[C@@H]1NC(=O)[C@@](C)(NC(=O)[C@H](CCCNC(=N)N)NC(=O)[C@H](CC(C)C)NC(=O)[C@@H](NC(=O)[C@H](CCC(N)=O)NC(=O)[C@H](CC(C)C)NC(=O)[C@H](CO)NC(=O)[C@H](CCCNC(=N)N)NC(=O)[C@H](CCC(N)=O)NC(=O)[C@H](CCCNC(=N)N)NC(=O)[C@H](Cc2c[nH]cn2)NC(C)=O)[C@@H](C)O)CCCC=CCCC[C@@](C)(C(=O)N[C@@H](Cc2ccc(Cl)cc2)C(=O)N[C@@H](Cc2ccc3ccccc3c2)C(N)=O)NC(=O)[C@H](CCCNC(=N)N)NC(=O)[C@H](CCC(N)=O)NC1=O
B3: SEQ ID NO: 211 (peptide)
peptide: {Palmitoyl-PEG4″}-HRQRS[Cha][NMeQ′]TLR[S5]IQR[S5][Cha][2Nal]-NH2
modifications: staple 11-15; not fully specified; printed as HRQRS(Cha)(N-methylQ)TLRXaa3IQRXaa6(Cha)(2-Nal)
B4: SEQ ID NO: 216 (peptide)
peptide: Ac-CRQRSLQTLR[S5]IQR[S5][Cha][2Nal]-NH2
modifications: staple 11-15
SMILES: CC[C@H](C)[C@@H]1NC(=O)[C@@](C)(NC(=O)[C@H](CCCNC(=N)N)NC(=O)[C@H](CC(C)C)NC(=O)[C@@H](NC(=O)[C@H](CCC(N)=O)NC(=O)[C@H](CC(C)C)NC(=O)[C@H](CO)NC(=O)[C@H](CCCNC(=N)N)NC(=O)[C@H](CCC(N)=O)NC(=O)[C@H](CCCNC(=N)N)NC(=O)[C@H](CS)NC(C)=O)[C@@H](C)O)CCCC=CCCC[C@@](C)(C(=O)N[C@@H](CC2CCCCC2)C(=O)N[C@@H](Cc2ccc3ccccc3c2)C(N)=O)NC(=O)[C@H](CCCNC(=N)N)NC(=O)[C@H](CCC(N)=O)NC1=O
B5: SEQ ID NO: 217 (peptide)
peptide: Ac-[NMeC]RQRSLQTLR[S5]IQR[S5][Cha][2Nal]-NH2
modifications: staple 11-15
SMILES: CC[C@H](C)[C@@H]1NC(=O)[C@@](C)(NC(=O)[C@H](CCCNC(=N)N)NC(=O)[C@H](CC(C)C)NC(=O)[C@@H](NC(=O)[C@H](CCC(N)=O)NC(=O)[C@H](CC(C)C)NC(=O)[C@H](CO)NC(=O)[C@H](CCCNC(=N)N)NC(=O)[C@H](CCC(N)=O)NC(=O)[C@H](CCCNC(=N)N)NC(=O)[C@H](CS)N(C)C(C)=O)[C@@H](C)O)CCCC=CCCC[C@@](C)(C(=O)N[C@@H](CC2CCCCC2)C(=O)N[C@@H](Cc2ccc3ccccc3c2)C(N)=O)NC(=O)[C@H](CCCNC(=N)N)NC(=O)[C@H](CCC(N)=O)NC1=O
B6: SEQ ID NO: 200 (peptide)
peptide: Ac-HRQRS[Cha][NMeQ′]TLR[S5]IQR[S5][Phe(4-F)][2Nal]-NH2
modifications: staple 11-15; not fully specified; printed as HRQRS(Cha)(N-methylQ)TLRXaa3IQRXaa6(4-F-Ph)(2-Nal)
B7: SEQ ID NO: 202 (peptide)
peptide: Ac-HR[NMeQ′]RSL[NMeQ′]TLR[S5]IQR[S5][Phe(4-F)][2Nal]-NH2
modifications: staple 11-15; not fully specified; printed as HR(N-methylQ)RSL(N-methylQ)TLRXIQRX(4-F-Ph)(2-Nal), X/X stapled, (S) α-methyl, N-terminal Ac, C-terminal NH2
B8: SEQ ID NO: 203 (peptide)
peptide: Ac-HR[NMeQ′]RSL[NMeQ′]TLR[S5]IQR[S5][Phe(3,4-Cl2)][2Nal]-NH2
modifications: staple 11-15; not fully specified; printed as HR(N-methylQ)RSL(N-methylQ)TLRXIQRX(3,4-diCl-Ph)(2-Nal), X/X stapled, (S) α-methyl, N-terminal Ac, C-terminal NH2
B9: SEQ ID NO: 114 (peptide)
peptide: [Cba][dNMeQ]TLR[S5]IQR[S5][Cba][2Nal]
modifications: staple 6-10; not fully specified (N-terminus, C-terminus); printed as (CBA)(N-methylQ)TLRXIQRX(CBA)(2-Nal), X/X stapled, (S) α-methyl, N-terminal Ac, C-terminal NH2
B10: SEQ ID NO: 21 (peptide)
peptide: Ac-AQTAR[S5]IQR[S5]L[2Nal]-NH2
modifications: staple 6-10
SMILES: CC[C@H](C)[C@@H]1NC(=O)[C@@](C)(NC(=O)[C@H](CCCNC(=N)N)NC(=O)[C@H](C)NC(=O)[C@@H](NC(=O)[C@H](CCC(N)=O)NC(=O)[C@H](C)NC(C)=O)[C@@H](C)O)CCCC=CCCC[C@@](C)(C(=O)N[C@@H](CC(C)C)C(=O)N[C@@H](Cc2ccc3ccccc3c2)C(N)=O)NC(=O)[C@H](CCCNC(=N)N)NC(=O)[C@H](CCC(N)=O)NC1=O

Molecular target: T1, β-catenin
Assay: ALPHA Screen (BCL9/β-catenin);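 also: bead proximity readout with the polypeptide linked to donor beads and β-catenin fixed on acceptor beads, their binding bringing the beads close enough to emit signal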
Text: In this assay, a polypeptide is conjugated to a donor bead and its target protein (i.e., β-catenin) is attached to an acceptor bead. When the two beads are in proximity due to the binding of the polypeptide to the target protein, a signal is generated and the binding affinity of the polypeptide can be quantitatively calculated. The assay may be conducted in the presence or absence of an unconjugated control polypeptide.

IC50 | Binder
6.07 µM | {5‑phenylvaleric acid}-L[NMeQ]TLR[S5]IQR[S5][Cba][2Nal]-NH2 (staple 6-10; not fully specified) [SEQ ID NO: 142]
2.25 µM | B1
0.43 µM | Ac-HRQRSLQTL[hArg][S5]IQR[S5][Cba][2Nal]-NH2 (staple 11-15) [SEQ ID NO: 170]
0.063 µM | B2
0.305 µM | B3
0.155 µM | B4
0.384 µM | B5
0.324 µM | B6
0.294 µM | B7
0.312 µM | B8
27.9 µM | LQTLRDIQRML[2Nal]PD [SEQ ID NO: 53]
7.68 µM | Ac-LQTLR[S5]IQR[S5]A[2Nal]-NH2 (staple 6-10) [SEQ ID NO: 77]
5.65 µM | Ac-LQTLR[S5]IQH[S5][Cba][2Nal]-NH2 (staple 6-10) [SEQ ID NO: 112]
2.86 µM | Ac-LQT[dL]R[S5]IQR[S5]L[2Nal]-NH2 (staple 6-10) [SEQ ID NO: 103]
4.53 µM | Ac-LQT[Cba]R[S5]IQR[S5][Cba][2Nal]-NH2 (staple 6-10) [SEQ ID NO: 115]
6.99 µM | Ac-[Cba]QTLR[S5]IQR[S5][Cba][2Nal]-NH2 (staple 6-10) [SEQ ID NO: 113]
4.9 µM | B9
0.913 µM | Ac-LETLR[S5]IQR[S5][Cba][2Nal]-NH2 (staple 6-10) [SEQ ID NO: 109]
8.99 µM | Ac-LQTLR[S5]AQR[S5]L[2Nal]-NH2 (staple 6-10) [SEQ ID NO: 76]
14.4 µM | Ac-LQTLK[S5]IQR[S5]L[2Nal]-NH2 (staple 6-10) [SEQ ID NO: 100]
7.61 µM | B10
10.6 µM | Ac-LQTLR[S5]IQK[S5]L[2Nal]-NH2 (staple 6-10) [SEQ ID NO: 101]
6.84 µM | Ac-[dL]QTIR[S5]IQR[S5]L[2Nal]-NH2 (staple 6-10) [SEQ ID NO: 102]
10.7 µM | Ac-LQTLR[S5]IQR[S5][dL][2Nal]-NH2 (staple 6-10) [SEQ ID NO: 105]
11.4 µM | Ac-LQTAR[S5]AQR[S5]L[2Nal]-NH2 (staple 6-10; not fully specified; printed as LQTARXAQRXL(2-Nal)) [SEQ ID NO: 22]
47.1 µM | Ac-LQTLE[S5′]IQR[S5′]L[2Nal]-NH2 (staple 6-10) [SEQ ID NO: 98]
30 µM | Ac-LQTLR[S5]AQR[S5]A[2Nal]-NH2 (staple 6-10; not fully specified; printed as LQTLRXAQRXA(2-Nal)) [SEQ ID NO: 23]
6.29 µM | Ac-LQTAR[S5]IQR[S5]L[2Nal]-NH2 (staple 6-10) [SEQ ID NO: 75]
50 µM | Ac-LQTLR[S5′]IQE[S5′]L[2Nal]-NH2 (staple 6-10) [SEQ ID NO: 99]
0.34 µM | Ac-HRQRSLQTLR[S5]IQ[hArg][S5][Cba][2Nal]-NH2 (staple 11-15) [SEQ ID NO: 171]
